B1: PADI4_11 analogue with R5 replaced by lysine (peptide)
chain: YESCKYRQVLQL
modifications: as PADI4_11: thioether cyclisation between the N-terminus and the side chain of C4; C-terminal amide
B2: PADI4_11 analogue with R7 replaced by alanine (peptide)
chain: YESCRYAQVLQL
modifications: as PADI4_11: thioether cyclisation between the N-terminus and the side chain of C4; C-terminal amide
B3: PADI4_11 (peptide)
peptide: YESCRYRQVLQL
modifications: not fully specified; L-tyrosine at position 1; cyclised via a thioether bond between the N-terminus (chloroacetylated) and the side chain of C4; C-terminal amide
B4: PADI4_11 analogue with R7 replaced by lysine (peptide)
chain: YESCRYKQVLQL
modifications: as PADI4_11: thioether cyclisation between the N-terminus and the side chain of C4; C-terminal amide
B5: PADI4_11 analogue with E2 replaced by glutamine (peptide)
chain: YQSCRYRQVLQL
modifications: as PADI4_11: thioether cyclisation between the N-terminus and the side chain of C4; C-terminal amide
B6: PADI4_11 analogue with E2 replaced by aspartic acid (peptide)
chain: YDSCRYRQVLQL
modifications: as PADI4_11: thioether cyclisation between the N-terminus and the side chain of C4; C-terminal amide
B7: PADI4_11 analogue with R5 replaced by alanine (peptide)
chain: YESCAYRQVLQL
modifications: as PADI4_11: thioether cyclisation between the N-terminus and the side chain of C4; C-terminal amide
B8: PADI4_11 analogue with E2 replaced by alanine (peptide)
chain: YASCRYRQVLQL
modifications: as PADI4_11: thioether cyclisation between the N-terminus and the side chain of C4; C-terminal amide
B9: PADI4_3 variant with R7 replaced by asparagine (peptide)
chain: YRDHHYNHPKYCG
modifications: as PADI4_3: D-tyrosine at position 1; thioether cyclisation between the N-terminus and the cysteine side chain; C-terminal amide
B10: PADI3_H4R_K10_I (peptide)
peptide: YRDRHYRHPIYCG
modifications: D-tyrosine at position 1; N-terminus joined to the side chain of Cys12 by a thioether bond (cyclic); C-terminal amide
B11: PADI4_3 variant with R7 replaced by alanine (peptide)
chain: YRDHHYAHPKYCG
modifications: as PADI4_3: D-tyrosine at position 1; thioether cyclisation between the N-terminus and the cysteine side chain; C-terminal amide
B12: PADI4_3 variant with R7 replaced by tryptophan (peptide)
chain: YRDHHYWHPKYCG
modifications: as PADI4_3: D-tyrosine at position 1; thioether cyclisation between the N-terminus and the cysteine side chain; C-terminal amide

Ends that are not written are not given here. Bounds are passed on as bounds.

The first experiment deals with T1, N-terminally biotinylated recombinant human PADI4 (bio-His-PADI4) (human, UniProt Q9UM07 1-663, biotin on the N-terminal Avi-Tag (BirA)). The experiment in a line: SPR.
T1 sequence (Q9UM07 whole entry): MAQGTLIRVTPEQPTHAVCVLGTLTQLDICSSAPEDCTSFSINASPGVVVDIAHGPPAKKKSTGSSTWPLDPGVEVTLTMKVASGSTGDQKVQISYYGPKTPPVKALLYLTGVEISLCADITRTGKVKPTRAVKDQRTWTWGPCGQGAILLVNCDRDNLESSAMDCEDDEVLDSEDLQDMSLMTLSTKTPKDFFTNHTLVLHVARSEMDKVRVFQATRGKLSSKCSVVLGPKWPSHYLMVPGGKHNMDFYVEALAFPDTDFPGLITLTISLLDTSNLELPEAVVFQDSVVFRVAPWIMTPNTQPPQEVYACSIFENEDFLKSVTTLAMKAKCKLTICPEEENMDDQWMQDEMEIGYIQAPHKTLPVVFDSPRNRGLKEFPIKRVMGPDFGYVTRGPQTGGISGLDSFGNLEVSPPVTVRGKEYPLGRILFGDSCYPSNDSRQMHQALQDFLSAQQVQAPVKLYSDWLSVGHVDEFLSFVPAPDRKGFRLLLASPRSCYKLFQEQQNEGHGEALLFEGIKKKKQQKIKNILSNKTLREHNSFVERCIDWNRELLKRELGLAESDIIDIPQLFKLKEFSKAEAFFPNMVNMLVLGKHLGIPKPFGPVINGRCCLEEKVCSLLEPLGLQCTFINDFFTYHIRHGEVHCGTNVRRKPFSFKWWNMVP
For B1, the Kd was found to be 1400 nM. On the same count and under the same terms, as for YESCRYRAVLQL [PADI4_11 Q8A], the figure is 500 nM; as for YESCRY [11B], over 2000 nM; as for B2, 4000 nM. For YESCRYRQALQL [PADI4_11 V9A], the Kd was determined as 14000 nM. On the same count and under the same terms, as for B3, the figure is 500 nM. For the molecule B4, the equilibrium dissociation constant (Kd) is 700 nM. With B5, the Kd was determined as 20000 nM.

With AESCRYRQVLQL [PADI4_11 Y1A], the Kd worked out at 11100 nM. Still for that read-out and setting: as for B6, the figure is 41000 nM; as for YESCRYRQVAQL [PADI4_11 L10A], 300 nM. On to YESCRYRQVLQA [PADI4_11 L12A], for which the Kd was determined as 5100 nM. As for YESCRYRQVLAL [PADI4_11 Q11A], the Kd stood at 310 nM.

As to YESARYRQVLQL-NH2 [PADI4_11 analogue with C4 replaced by alanine], the Kd was 118000 nM.

YESCRARQVLQL [PADI4_11 Y6A]: the Kd worked out at 13000 nM. Same read-out and setting: as for YEACRYRQVLQL [PADI4_11 S3A], the figure is 160 nM; as for B7, 34000 nM; as for B8, 114000 nM.

The target in a further experiment is T1, N-terminally biotinylated recombinant …. The experiment in a line: SPR. This is another data set of the same source. In general terms: In SPR one partner is held on a chip, and binding of the other changes the refractive index at the surface.
On to B9, for which the dissociation constant Kd was 41 nM. The same measure, in the same setting: next, B10: 7 nM; YRDHHYRHPVYCG [PADI4_3_K10V]: 5 nM; YRDHHHRHPKYCG [PADI4_3_Y6H]: 30 nM. The same measure, in the same setting: next, YRDHHYRHPIYCG [PADI4_3_K10I]: 4 nM; B11: 8 nM; B12: 6 nM. Regarding YRDHHYRHPKYCG [PADI4_3_dY1(OMe)Y], the Kd was 23 nM.

As usually defined, the Kd is the concentration at which binding is half-saturated.
